The results in this text go back to PMC10653890, “The morphogenic protein CopD controls the spatio-temporal dynamics of PBP1a and PBP2b in Streptococcus pneumoniae” (mBio, 2023).

Sequences and labels used below:
B1: PBP2bTP, transpeptidase domain of PBP2b (Met39 to Asn685) (domain or fragment)
chain: MQVLNKDFYEKKLASASQTKITSSSARGEIYDASGKPLVENTLKQVVSFTRSNKMTATDLKETAKKLLTYVSISSPNLTERQLADYYLADPEIYKKIVEALPSEKRLDSDGNRLSESELYNNAVDSVQTSQLNYTEDEKKEIYLFSQLNAVGNFATGTIATDPLNDSQVAVIASISKEMPGISISTSWDRKVLETSLSSIVGSVSSEKAGLPAEEAEAYLKKGYSLNDRVGTSYLEKQYEETLQGKRSVKEIHLDKYGNMESVDTIEEGSKGNNIKLTIDLAFQDSVDALLKSYFNSELENGGAKYSEGVYAVALNPKTGAVLSMSGIKHDLKTGELTPDSLGTVTNVFVPGSVVKAATISSGWENGVLSGNQTLTDQSIVFQGSAPINSWYTQAYGSFPITAVQALEYSSNTYMVQTALGLMGQTYQPNMFVGTSNLESAMEKLRSTFGEYGLGTATGIDLPDESTGFVPKEYSFANYITNAFGQFDNYTPMQLAQYVATIANNGVRVAPRIVEGIYGNNDKGGLGDLIQQLQPTEMNKVNISDSDMSILHQGFYQVAHGTSGLTTGRAFSNGALVSISGKTGTAESYVADGQQATNTNAVAYAPSDNPQIAVAVVFPHNTNLTNGVGPSIARDIINLYQKYHPMN
B2: CopDED, extracellular two-PEPSY domain of CopD (Met38 to Leu162) (domain or fragment)
chain: SMKPYQTAKSEGEKLAQQYAGLEQADQVDLYNGLESYYSVLGRNKQQEALAVLIGKDDHKIYVYQLNQGISQEKAETVSKEKGAGEIDKITFGRYQDKPIWEVKSGSDFYLVDFETGALVNKEGL
modifications: labelled with the Protein labeling kit red NHS 2nd generation (Nanotemper)

For assay [1], the target named is B2. Nature of the assay: MST; Monolith NT.115; labelled CopDED at 168 nM, PBP2bTP 5.2 µM to 0.159 nM or PBP1aTP 4.5 µM to 0.137 nM; 20 mM HEPES pH 7.5, 300 mM NaCl, 10% glycerol, 0.1% Tween 20; 25°C. Particulars: both partners purified.
The target of assay [2] is T1, PBP1aTP, transpeptidase domain of PBP1a (Ser266 to Asn650) (S. pneumoniae R800 strain, UniProt Q8DR59 266-650).
T1 construct: also called PBP1aTP-6his; source: E. coli BL21 star (DE3), purified (Ni-NTA; extracellular domain digested by trypsin; gel filtration)
T1 sequence (looked up): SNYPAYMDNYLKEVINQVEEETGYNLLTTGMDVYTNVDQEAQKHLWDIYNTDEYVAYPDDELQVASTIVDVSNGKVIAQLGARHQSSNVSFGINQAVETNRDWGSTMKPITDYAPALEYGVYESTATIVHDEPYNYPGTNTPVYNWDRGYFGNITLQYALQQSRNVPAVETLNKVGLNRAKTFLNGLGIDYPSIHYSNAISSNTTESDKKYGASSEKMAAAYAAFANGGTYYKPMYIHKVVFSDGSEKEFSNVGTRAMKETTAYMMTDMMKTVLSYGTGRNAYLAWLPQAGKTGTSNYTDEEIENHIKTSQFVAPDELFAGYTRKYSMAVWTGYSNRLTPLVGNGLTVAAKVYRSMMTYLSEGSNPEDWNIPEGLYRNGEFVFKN
The description is as above. Particulars: both partners purified.

As a reminder, the Kd is the concentration at which binding is half-saturated. As for B1, the Kd in assay [1] was > 10 µM.

In the case of B2, the Kd in assay [2] was > 10 µM.
